Test results: patent US12023367B2, “Immunomodulation for the long term prevention and treatment of autoimmune diseases and foreign tissue rejection” (University of Louisville Research Foundation, Inc., priority 2015, dated 2024)

Experiments:
C57BL/6 mice = test: Mixed hematopoietic allogeneic chimerism after bone marrow transplantation, 100 cGy total body irradiation, with cyclophosphamide; conditions: mouse, in vivo
Experimental: C57BL/6 mice were subjected to 100 cGy total body irradiation followed by intravenous transplantation of 30×10^6 unmodified (BMC) or the combination of SA-FasL and SA-IL-2 (mFasL/IL-2-BMC) one day later. […] All groups were treated i.p. with rapamycin (2 mg/kg) daily for 10 doses starting on day 6 pot-transplantation. The test group was also treated starting on day 6 post-transplantation with both soluble SA-FasL (sFasL; 500 ng/daily for 15 doses) and IL-2 (25,000 IU/daily for 7 doses). Percent donor chimerism at various times post-transplantation was assessed using peripheral blood lymphocytes with antibodies against donor class I MHC molecule in flow cytometry.
The tissues were, processed into single cell suspension, stained with antibodies to the indicated cell surface markers, and analyzed using flow cytometry.

streptavidin = streptavidin (Streptomyces avidinii, UniProt P22629); conditions: cited from earlier work
Chain of streptavidin (P22629 25-183): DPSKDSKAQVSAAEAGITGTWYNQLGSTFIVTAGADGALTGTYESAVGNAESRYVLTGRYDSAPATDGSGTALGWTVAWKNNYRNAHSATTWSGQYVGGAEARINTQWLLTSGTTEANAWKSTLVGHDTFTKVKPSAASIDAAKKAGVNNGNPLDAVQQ

avidin = avidin (Gallus gallus, UniProt P02701); conditions: cited from earlier work
Chain of avidin (P02701 25-152): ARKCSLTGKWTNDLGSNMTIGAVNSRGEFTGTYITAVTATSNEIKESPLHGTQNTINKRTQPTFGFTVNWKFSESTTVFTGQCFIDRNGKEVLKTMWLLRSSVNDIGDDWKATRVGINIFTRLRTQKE

[1] = system: STZ diabetic C57BL/6 mice; test: Allogeneic islet transplantation under the kidney capsule (BALB/c-to-C57BL/6); assay type: in vivo
Experimental: FIG. 1. Systemic immunomodulation with soluble SA-FasL synergizes with SA-FasL-engineered islets for long-term survival. BALB/c islets were engineered with SA-FasL (mSA-FasL) or SA control (mSA) proteins and transplanted under the kidney capsule of STZ diabetic C57BL/6 mice. Soluble (s)SA-FasL was administered i.p. at 2-5 μg/mouse on days 1, 3, 5, 7 post-transplantation. In selected groups rapamycin was used at 0.2 mg/kg daily for 15 days starting the day of transplantation.
Treatment with soluble SA-FasL only under a short course of rapamycin was also effective, achieving >80% graft survival.

[2] = system: STZ diabetic C57BL/6 mice; test: Intraportal allogeneic islet transplantation (BALB/c-to-C57BL/6), soluble SA-FasL; assay type: in vivo
Experimental: FIG. 2. Survival of allogeneic islets transplanted intraportally with different treatment protocols. BALB/c islets were engineered with SA-FasL protein and transplanted intraportally into STZ diabetic C57BL/6 mice. Rapa was used daily at 0.2 mg/kg for 15 doses starting on day of transplantation. Soluble (s)FasL was used at the indicated dose and regimens.
To further establish SA-FasL as a soluble biologic, we tested its immunomodulatory capacity for the prevention of allogeneic islets transplanted using a more stringent model of intraportal islet transplantation. The rationale for this model is twofold. First, intraportal islet transplantation is the only site practiced in the clinic. Second, intraportal islet transplantation provides a much more stringent model as compared to subrenal islet transplantation. […] Therefore, we used this model to test if SA-FasL can be developed as a soluble biologic for the prevention and treatment of type I diabetes and foreign graft rejection.

[3] = system: NHP (rhesus monkey) PBMCs; test: Apoptosis of NHP PBMC T cells cultured with SA-FasL (Annexin V, flow cytometry); assay type: cell-based; conditions: Teff (CD3+CD28-Fas+) or T central (CD3+CD28+Fas+) memory; PBMCs from 3 NHPs
Experimental: FIG. 3. SA-FasL induces apoptosis in nonhuman primate (NHP) Teff cells. NHP (rhesus monkey) PBMCs were cultured with SA-FasL and apoptosis was assessed using Annexin V by gating on CD3^+ T cells. Cells incubated with SA served as controls. Data is representative of PBMCs from 3 NHPs.
Inasmuch as individuals with onset of autoimmunity have a large pool of activated and memory T cells, we asked if SA-FasL is capable of inducing apoptosis in such cells. For this purpose, we used nonhuman primate (NHP) peripheral blood lymphocytes (PBMCs). The PBMCs from 3 different NHPs were incubated with SA-FasL protein and apoptosis was assessed using flow cytometry.

Female NOD mice = test: Prevention of type 1 diabetes in NOD mice; assay type: in vivo
Experimental: FIG. 5. Systemic treatment with SA-FasL protein delays the onset and incidence of Type 1 Diabetes in NOD. Female NOD mice were treated with the indicated agents at 10-week of age. Mice were then monitored for hyperglycemia by urine glucose test, which was confirmed by a blood glucose test. Mice with >200 mg/dl blood glucose levels were considered diabetic. Soluble (s)SA-FasL in PBS was used at 500 ng/injection intraperitoneally daily for 30 days. […] Female mice without any treatment were used as controls. In the SA-FasL only treatment group, 3 diabetic mice were treated with an additional 10 daily doses (black arrows) of SA-FasL soon after incidence of diabetes, resulting in temporary remission of hyperglycemia in ⅔ of those mice.
Inasmuch as antigen-experienced cells express Fas receptor on their surface, systemic treatment with SA-FasL has potential to eliminate such cells and control/reverse T1D without a major effect on quiescent T cell repertoire. This notion was tested by treating 10-wk female NOD mice daily with 500 ng SA-FasL protein for 30 days. […] We next asked the question if SA-FasL will work in synergy with IL-2. […] Indeed, T regulatory cells express FasL on their surface and control T effector responses by direct elimination via Fas receptor or indirectly by eliminating Fas-expressing DCs.

[4] = system: STZ diabetic C57BL/6 mice; test: Intraportal allogeneic islet transplantation, SA-FasL and IL-2; assay type: in vivo; conditions: soluble SA-FasL as monotherapy
Experimental: BALB/c islets were transplanted intraportally into STZ diabetic age-matched males and females C57BL/6 mice.
These islets were then immediately transplanted intraportally into diabetic mice (450-550 islets/mouse). Mice were then treated with the indicated proteins and doses. Animals were monitored for diabetes, and those with two consecutive daily measurements of ≥250 mg/dl blood glucose level were considered diabetic and confirmation of graft failure.

[5] = system: C57BL/6 recipients of allogeneic BALB/c hearts; test: Cardiac allograft survival, BALB/c-to-C57BL/6 model; assay type: in vivo, mice; conditions: IL-2 7 doses or SA-FasL 15 doses i.p., no other manipulation
From the text: We next tested if SA-FasL as a biologic can work as an immunomodulator to prevent rejection of vascularized solid grafts. Heart transplantation from BALB/c into C57BL/6 mice was used as a stringent allogeneic heart graft model.

O=P1(N(CCCl)CCCl)NCCCO1 (stereo not shown) [cyclophosphamide]
establishment of mixed hematopoietic allogeneic chimerism (C57BL/6 mice): acted synergistically

O=C(O)CCCC[C@@H]1SC[C@@H]2NC(=O)N[C@@H]21 [biotin]
affinity for streptavidin (streptavidin): 10^13 M^−1 | affinity for avidin (avidin): 10^15 M^−1

B1: SA-FasL: chimeric protein of core streptavidin and the extracellular domain of FasL (rat FasL without metalloproteinase site); used unbound, in soluble form (protein)
chain: RSDYKDDDDKGTITGTWYNQLGSTFIVTAGADGALTGTYESAVGNAESRYVLTGRYDSAPATDGSGTALGWTVAWKNNYRNAHSATTWSGQYVGGAEARINTQWLLTSGATEANAWKSTLVGHDTFTKVKPSAASSGGGGSGGGGSGEFIANPSTPSETKKPRSVAHLTGNPRSRSIPLEWEDTYGTALISGVKYKKGGLVINEAGLYFVYSKVYFRGQSCNSQPLSHKVYMRNFKYPGDLVLMEEKKLNYCTTGQIWAHSSYLGAVFNLTVADHLYVNISQLSLINFEESKTFFGLYKL
time of delayed rejection ([1]; soluble SA-FasL 2-5 μg/mouse i.p. on days 1, 3, 5, 7, SA-FasL-islet grafts): ~70 days | recipients with delayed rejection of allogeneic SA-FasL-islet grafts (fraction) ([1]; soluble SA-FasL 2-5 μg/mouse i.p. on days 1, 3, 5, 7 post-transplantation, SA-FasL-engineered BALB/c islets under kidney capsule): ⅛ | graft survival ([1]; soluble SA-FasL only, under a short course of rapamycin): > 80% | islet graft survival ([2]; 4 doses of SA-FasL (2-5 μg/injection) i.v. or i.p. on days 1, 3, 5, 7, SA-FasL-engineered islets, intraportal): All BALB/c islets engineered with SA-FasL protein survived | mice that rejected the graft ([2]; soluble FasL 1 μg injection daily for 20 days from day of transplantation, no islet engineering, intraportal): one out of six | day of graft rejection post-transplantation ([2]; soluble FasL 1 μg injection daily for 20 days, the one rejecting mouse): 80 days | toxicity ([2]; soluble biologic at therapeutic doses): without toxicity | apoptosis of T cells [3]: Almost all T cells expressing Fas underwent apoptosis | toxicity (Female NOD mice; 500 ng SA-FasL daily for 30 days): did not observe any sign of SA-FasL toxicity | onset and incidence of T1D vs controls (Female NOD mice; 500 ng SA-FasL daily for 30 days, 10-wk female NOD): significantly delayed the onset and incidence of T1D | temporary remission of hyperglycemia (fraction of mice) (Female NOD mice; 3 diabetic mice given additional 10 daily doses of SA-FasL soon after incidence of diabetes): ⅔ | allogeneic islets whose rejection was prevented [4]: ~60% | effect on cardiac graft survival, monotherapy [5]: moderate prolongation of the grafts
